What all share (assay): BLI; intact antibody
The target of assay [1] is anti-LHFPL5.
Assay [2] concerns the target 8D1.
The target of assay [3] is 39G7.

As a reminder, the Kd is a measure of binding affinity in units of concentration. Lower therefore signals a tighter complex. One may read the koff as the rate constant with which the complex falls apart. A lower koff goes with a long-lived complex.

Chain of 8D1 (Q99PJ1 27-1462): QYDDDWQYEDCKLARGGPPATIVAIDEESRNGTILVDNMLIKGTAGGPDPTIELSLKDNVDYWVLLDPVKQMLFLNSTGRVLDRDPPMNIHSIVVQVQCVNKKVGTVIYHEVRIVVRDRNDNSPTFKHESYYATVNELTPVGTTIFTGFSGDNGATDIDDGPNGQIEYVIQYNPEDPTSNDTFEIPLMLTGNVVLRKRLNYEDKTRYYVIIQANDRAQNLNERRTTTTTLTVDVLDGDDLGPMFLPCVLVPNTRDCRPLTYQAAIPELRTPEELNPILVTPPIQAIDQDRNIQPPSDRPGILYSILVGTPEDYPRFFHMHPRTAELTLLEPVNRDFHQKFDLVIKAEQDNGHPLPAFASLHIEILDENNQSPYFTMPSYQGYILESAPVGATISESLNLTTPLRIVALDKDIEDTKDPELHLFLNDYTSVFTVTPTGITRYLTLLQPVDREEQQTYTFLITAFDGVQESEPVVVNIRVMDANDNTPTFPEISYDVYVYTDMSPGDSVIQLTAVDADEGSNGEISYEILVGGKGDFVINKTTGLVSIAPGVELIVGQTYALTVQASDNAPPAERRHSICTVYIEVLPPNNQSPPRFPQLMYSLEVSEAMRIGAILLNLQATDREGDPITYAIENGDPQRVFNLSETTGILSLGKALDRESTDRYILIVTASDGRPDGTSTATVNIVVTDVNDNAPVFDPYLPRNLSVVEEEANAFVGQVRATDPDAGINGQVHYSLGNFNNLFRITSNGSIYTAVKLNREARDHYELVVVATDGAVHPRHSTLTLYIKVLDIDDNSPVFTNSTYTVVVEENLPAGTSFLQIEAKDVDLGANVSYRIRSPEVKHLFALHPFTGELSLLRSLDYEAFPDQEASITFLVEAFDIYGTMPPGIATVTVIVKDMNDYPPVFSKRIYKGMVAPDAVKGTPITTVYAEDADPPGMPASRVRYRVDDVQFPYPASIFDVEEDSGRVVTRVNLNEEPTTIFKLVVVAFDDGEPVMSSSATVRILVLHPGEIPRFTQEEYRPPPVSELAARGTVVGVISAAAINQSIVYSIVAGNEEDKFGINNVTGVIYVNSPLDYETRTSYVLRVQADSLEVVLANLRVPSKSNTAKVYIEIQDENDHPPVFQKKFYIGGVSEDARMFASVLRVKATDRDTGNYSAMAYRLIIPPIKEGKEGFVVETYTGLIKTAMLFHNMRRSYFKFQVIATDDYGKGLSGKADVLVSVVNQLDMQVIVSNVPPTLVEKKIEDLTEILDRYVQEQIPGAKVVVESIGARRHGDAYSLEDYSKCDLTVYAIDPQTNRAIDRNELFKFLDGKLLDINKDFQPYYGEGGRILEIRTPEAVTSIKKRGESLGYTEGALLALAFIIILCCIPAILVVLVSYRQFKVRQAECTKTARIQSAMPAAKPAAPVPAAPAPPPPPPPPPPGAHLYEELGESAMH
Chain of 39G7 (Q99PJ1 27-1462): as above

B1: recombinant lipoma HMGIC fusion partner-like protein 5 (LHFPL5), residues 2-219 (natural protein)
chain: VKLLPAQEAAKIYHTNYVRNSRAVGVMWGTLTICFSVLVMALFIQPYWIGDSVSTPQAGYFGLFSYCVGNVLSSELICKGGPLDFSSIPSRAFKTAMFFVALAMFLIIGSIICFSLFFVCNTATVYKICAWMQLAAATGLMIGCLVYPDGWDSSEVRRMCGEQTGKYTLGHCTIRWAFMLAILSIGDALILSFLAFVLGYRQDKLLPDDYKADGNEEV
In assay [1], B1 came in with a Kd of 1 nM and a koff of 5e-05 s⁻¹.

B2: recombinant protocadherin-15 (PCDH15), residues 1-1462 (EC1-EC11 and part of the cytoplasmic region) (domain or fragment)
chain: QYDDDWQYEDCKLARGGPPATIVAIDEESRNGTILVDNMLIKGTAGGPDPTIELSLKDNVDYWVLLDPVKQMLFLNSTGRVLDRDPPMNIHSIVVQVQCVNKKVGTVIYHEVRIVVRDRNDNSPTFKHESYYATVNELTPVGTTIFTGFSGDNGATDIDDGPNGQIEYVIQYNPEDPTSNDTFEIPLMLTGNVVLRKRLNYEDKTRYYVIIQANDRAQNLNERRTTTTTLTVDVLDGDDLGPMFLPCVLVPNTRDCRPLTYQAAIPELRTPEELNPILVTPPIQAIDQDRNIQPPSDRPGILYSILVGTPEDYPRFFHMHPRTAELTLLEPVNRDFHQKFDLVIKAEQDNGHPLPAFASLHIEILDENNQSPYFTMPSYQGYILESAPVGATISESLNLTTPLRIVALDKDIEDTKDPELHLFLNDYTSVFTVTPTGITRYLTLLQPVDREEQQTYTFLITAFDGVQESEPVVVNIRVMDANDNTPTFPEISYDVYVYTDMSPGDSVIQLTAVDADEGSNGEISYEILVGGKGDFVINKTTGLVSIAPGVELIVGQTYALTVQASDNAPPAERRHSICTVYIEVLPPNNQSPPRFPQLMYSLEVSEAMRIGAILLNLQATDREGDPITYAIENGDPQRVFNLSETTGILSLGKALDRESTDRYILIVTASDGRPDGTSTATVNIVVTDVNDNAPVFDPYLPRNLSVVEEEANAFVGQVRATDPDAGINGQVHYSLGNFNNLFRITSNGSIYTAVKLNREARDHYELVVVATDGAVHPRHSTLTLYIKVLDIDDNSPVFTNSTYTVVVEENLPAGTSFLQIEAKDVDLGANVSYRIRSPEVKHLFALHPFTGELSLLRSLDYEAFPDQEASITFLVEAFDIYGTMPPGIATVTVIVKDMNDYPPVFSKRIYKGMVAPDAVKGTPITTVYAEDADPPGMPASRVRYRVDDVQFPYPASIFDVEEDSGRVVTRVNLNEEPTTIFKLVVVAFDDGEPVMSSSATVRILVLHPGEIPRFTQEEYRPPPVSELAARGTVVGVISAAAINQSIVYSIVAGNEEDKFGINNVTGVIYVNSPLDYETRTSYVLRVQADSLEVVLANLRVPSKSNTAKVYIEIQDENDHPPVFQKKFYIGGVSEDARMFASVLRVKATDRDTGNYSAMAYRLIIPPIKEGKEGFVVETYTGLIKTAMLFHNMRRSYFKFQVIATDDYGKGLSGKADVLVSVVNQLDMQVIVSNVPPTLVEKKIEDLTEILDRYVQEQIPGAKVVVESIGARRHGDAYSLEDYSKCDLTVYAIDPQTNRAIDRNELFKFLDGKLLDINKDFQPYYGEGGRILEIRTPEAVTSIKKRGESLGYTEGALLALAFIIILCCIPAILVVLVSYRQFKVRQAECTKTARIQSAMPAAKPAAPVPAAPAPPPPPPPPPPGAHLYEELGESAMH
Take B2: the Kd in assay [2] worked out at 0.05 nM; in assay [3], 0.2 nM. Further, the koff was 3e-05 s⁻¹ in assay [2] and 2e-05 s⁻¹ in assay [3].
